This note sets out measurements from the supplement of paper PMC10724198.

± gives the standard deviation of the averaged measurements.

This data set relates to Saccharomyces cerevisiae. As to the kind of experiment: protein stability index of tFT-peptide fusion (C-terminal peptide) (PSI (0-1 scale)); higher = more stable (slower turnover). The following applies: temperature: 30 C. Here is the method: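 MPS profiling in S. cerevisiae of the yeast C-terminome library: the last 12 aa of each annotated ORF are fused to the C-terminus of a sfGFP-mCherry timer, after a GGGS linker. Cells are FACS-sorted into 8 mCherry/sfGFP bins and deep-sequenced. PSI runs from 0 (unstable) to 1 (stable); wild type and das1Δ backgrounds, two technical replicates each.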

The mark [1] stands for this setting: genetic background: das1 deletion.

For the sequence EREKVDIHIPQV [BEM3 C-terminal 12 aa], the protein stability index came to 0.711 ± 0.02 under setting [1] and 0.701 ± 0.011 (genetic background: wild type).

Consider ESIEELLRKTLE [ZNG1 C-terminal 12 aa], for which the protein stability index was 0.687 ± 0.02 under setting [1] and 0.735 ± 0.067 (genetic background: wild type).

For the sequence ESIVDFVERHED [IMO32 C-terminal 12 aa], the protein stability index by setting is: under setting [1], 0.714 ± 0.017; (genetic background: wild type) 0.691 ± 0.019.

As to ESPIDAEKNFAR [INA1 C-terminal 12 aa], the protein stability index reads like this: under setting [1], 0.693 ± 0.0098; (genetic background: wild type) 0.6821 ± 0.0024.

On to ETMGARLKIDGK [YJR149W C-terminal 12 aa], for which the protein stability index by setting is: under setting [1], 0.7079 ± 0.0065; (genetic background: wild type) 0.689 ± 0.011.

As for ETPSQTSQEATQ [ERG6 C-terminal 12 aa], the protein stability index is, setting by setting: under setting [1], 0.731 ± 0.0089; (genetic background: wild type) 0.722 ± 0.015.

On to ETSITNDNESQQ [PPZ1 C-terminal 12 aa], for which the protein stability index is, setting by setting: under setting [1], 0.695 ± 0.0074; (genetic background: wild type) 0.701 ± 0.04.

Regarding EVALAPSSNMIF [YKL083W C-terminal 12 aa], the protein stability index by setting is: under setting [1], 0.716 ± 0.02; (genetic background: wild type) 0.713 ± 0.0034.

In the case of EVDELPEGYDRS [TAH1 C-terminal 12 aa], the protein stability index by setting is: under setting [1], 0.6846 ± 0.0037; (genetic background: wild type) 0.6764 ± 0.002.

For EVLAADNTRVPC [YLL067C C-terminal 12 aa], the protein stability index was 0.6968 ± 0.0039 under setting [1] and 0.677 ± 0.028 (genetic background: wild type).

EVLERSVLLRKR [MDJ2 C-terminal 12 aa]: the protein stability index was 0.699 ± 0.017 under setting [1] and 0.688 ± 0.01 (genetic background: wild type).

For the sequence EVSQYAAFFQDD [CTM1 C-terminal 12 aa], the protein stability index is, setting by setting: under setting [1], 0.719 ± 0.02; (genetic background: wild type) 0.712 ± 0.028.

For the sequence EVTAKTSLVSPK [ROX1 C-terminal 12 aa], the protein stability index under setting [1] came to 0.7021 ± 0.004 and the protein stability index (genetic background: wild type) was 0.676 ± 0.018.

As for EVVKRYLKMRQD [PUP3 C-terminal 12 aa], the protein stability index by setting is: under setting [1], 0.7 ± 0.011; (genetic background: wild type) 0.5999 ± 0.0049.

For the sequence “FAFSFPITNVLE [YAL016C-B C-terminal 12 aa]”, the protein stability index runs as follows: under setting [1], 0.703 ± 0.012; (genetic background: wild type) 0.683 ± 0.049.

For FAQDLMKCTYKI [NUP145 C-terminal 12 aa], the protein stability index runs as follows: under setting [1], 0.708 ± 0.0095; (genetic background: wild type) 0.656 ± 0.018.

FATFELAMRLLG [YMC1 C-terminal 12 aa]: the protein stability index by setting is: under setting [1], 0.674 ± 0.015; (genetic background: wild type) 0.194 ± 0.013.

For FCESDSIKMYPT [FYV10 C-terminal 12 aa], the protein stability index by setting is: under setting [1], 0.706 ± 0.0071; (genetic background: wild type) 0.698 ± 0.026.

Turning to FCISFPCFGLSI [AIM26 C-terminal 12 aa], the protein stability index was determined as 0.679 ± 0.037 under setting [1] and 0.704 ± 0.003 (genetic background: wild type).

FCLQCFKDYCYS [SPO1 C-terminal 12 aa]: the protein stability index by setting is: under setting [1], 0.6444 ± 0.0063; (genetic background: wild type) 0.654 ± 0.032.

With FDSEHFYSPVQT [PRP3 C-terminal 12 aa], the protein stability index under setting [1] stood at 0.7065 ± 0.0023 and the protein stability index (genetic background: wild type) is 0.71 ± 0.024.

Regarding FDVELVDVKSAA [FPR2 C-terminal 12 aa], the protein stability index was determined as 0.6795 ± 0.0018 under setting [1] and 0.687 ± 0.037 (genetic background: wild type).

On to FEVDVDSLFKLY [MET1 C-terminal 12 aa], for which the protein stability index came out at 0.707 ± 0.018 under setting [1] and 0.442 ± 0.0068 (genetic background: wild type).

Regarding “FFHRISHFLESA [YLR299C-A C-terminal 12 aa]”, the protein stability index came out at 0.704 ± 0.018 under setting [1] and 0.695 ± 0.025 (genetic background: wild type).

As to FGDCHLENSHLH [SPO75 C-terminal 12 aa], the protein stability index reads like this: under setting [1], 0.7041 ± 0.0012; (genetic background: wild type) 0.719 ± 0.017.

In the case of FGICAIHWGIKV [COQ5 C-terminal 12 aa], the protein stability index was 0.385 ± 0.02 under setting [1] and 0.411 ± 0.013 (genetic background: wild type).

Regarding FGLFKKKNKSKK [SVL3 C-terminal 12 aa], the protein stability index runs as follows: under setting [1], 0.727 ± 0.027; (genetic background: wild type) 0.726 ± 0.073.

Turning to FGSSRSEWYLAL [YPL114W C-terminal 12 aa], the protein stability index by setting is: under setting [1], 0.701 ± 0.029; (genetic background: wild type) 0.709 ± 0.031.

Turning to FGWFDMNMEQGF [SEF1 C-terminal 12 aa], the protein stability index came to 0.7562 ± 0.0074 under setting [1] and 0.757 ± 0.023 (genetic background: wild type).

As for “FHSMAHLSLHQY [YOR394C-A C-terminal 12 aa]”, the protein stability index was determined as 0.7202 ± 0.00097 under setting [1] and 0.478 ± 0.091 (genetic background: wild type).

On to FIREFVLKNYSK [SNO2 C-terminal 12 aa], for which the protein stability index under setting [1] came to 0.669 ± 0.0099 and the protein stability index (genetic background: wild type) was found to be 0.71 ± 0.068.

With FIYKRNKKFILN [YPQ1 C-terminal 12 aa], the protein stability index is, setting by setting: under setting [1], 0.725 ± 0.014; (genetic background: wild type) 0.21 ± 0.019.

“FKCVHTPCNVYI [YER078W-A C-terminal 12 aa]”: the protein stability index turned out to be 0.679 ± 0.0076 under setting [1] and 0.665 ± 0.037 (genetic background: wild type).

Regarding FKVDDNVDFPSA [RPN2 C-terminal 12 aa], the protein stability index is, setting by setting: under setting [1], 0.681 ± 0.016; (genetic background: wild type) 0.744 ± 0.089.

With FLLVLFFICIIL [YOL014W C-terminal 12 aa], the protein stability index under setting [1] is 0.366 ± 0.013 and the protein stability index (genetic background: wild type) was determined as 0.3063 ± 0.0029.

As for FMGGFLSKGNKR [ROG3 C-terminal 12 aa], the protein stability index runs as follows: under setting [1], 0.706 ± 0.012; (genetic background: wild type) 0.683 ± 0.029.

FMGLGCVISEEL [TFB3 C-terminal 12 aa]: the protein stability index by setting is: under setting [1], 0.693 ± 0.01; (genetic background: wild type) 0.685 ± 0.097.

As for FNISDYFSDIHE [ORC5 C-terminal 12 aa], the protein stability index by setting is: under setting [1], 0.744 ± 0.02; (genetic background: wild type) 0.7 ± 0.023.

In the case of FPFELRREQTEG [PET130 C-terminal 12 aa], the protein stability index worked out at 0.6976 ± 0.0057 under setting [1] and 0.755 ± 0.061 (genetic background: wild type).

As to “FPKLALVCTIFS [YGR146C-A C-terminal 12 aa]”, the protein stability index is, setting by setting: under setting [1], 0.369 ± 0.019; (genetic background: wild type) 0.403 ± 0.009.

Consider FQERIKNKNILK [CWC27 C-terminal 12 aa], for which the protein stability index was 0.739 ± 0.008 under setting [1] and 0.729 ± 0.0083 (genetic background: wild type).

Consider FRCKFKERKVDG [REP1 C-terminal 12 aa], for which the protein stability index is, setting by setting: under setting [1], 0.682 ± 0.0088; (genetic background: wild type) 0.674 ± 0.015.

For FRSSAGLRSSKV [MIC10 C-terminal 12 aa], the protein stability index runs as follows: under setting [1], 0.742 ± 0.016; (genetic background: wild type) 0.706 ± 0.011.

For the sequence FSGDMSFTVYQL [POA1 C-terminal 12 aa], the protein stability index by setting is: under setting [1], 0.741 ± 0.01; (genetic background: wild type) 0.699 ± 0.041.

With FSIVALEVWRVG [OXR1 C-terminal 12 aa], the protein stability index runs as follows: under setting [1], 0.552 ± 0.013; (genetic background: wild type) 0.567 ± 0.022.

For FSSEQGNPKEEK [FMP10 C-terminal 12 aa], the protein stability index by setting is: under setting [1], 0.702 ± 0.034; (genetic background: wild type) 0.733 ± 0.03.

In the case of FTIYEKVLVMLA [CTP1 C-terminal 12 aa], the protein stability index reads like this: under setting [1], 0.286 ± 0.017; (genetic background: wild type) 0.20202 ± 3.5e-06.

For FTRRGWSSFFKQ [PCL9 C-terminal 12 aa], the protein stability index is, setting by setting: under setting [1], 0.684 ± 0.0086; (genetic background: wild type) 0.6647 ± 0.0024.

On to FVDGIANSKKST [SRB7 C-terminal 12 aa], for which the protein stability index reads like this: under setting [1], 0.699 ± 0.01; (genetic background: wild type) 0.682 ± 0.023.

As for FVFVNEFDVYTY [GPI12 C-terminal 12 aa], the protein stability index stood at 0.716 ± 0.018 under setting [1] and 0.704 ± 0.033 (genetic background: wild type).
